The text below walks through data of article PMC3541284 (Autophagy, 2012).

The test addresses 6xHis-GABARAP (UniProt O95166 1-117). Briefly: pull-down.

6xHis-GABARAP, sequence (O95166 whole entry): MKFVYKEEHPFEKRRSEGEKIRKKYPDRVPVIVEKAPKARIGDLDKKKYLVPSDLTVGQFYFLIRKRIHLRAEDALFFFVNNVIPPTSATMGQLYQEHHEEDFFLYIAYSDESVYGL

B1: GST-MAPK15_300–373_WT (domain or fragment, UniProt Q8TD08 300-373, looked up)
chain: QHPYVQRFHCPSDEWAREADVRPRAHEGVQLSVPEYRSRVYQMILECGGSSGTSREKGPEGVSPSQAHLHKPRA
In the case of B1, the binding result was “binds”.
